Experimental data from paper PMC7430637.

Columns and labels:
[1] = target: recombinant hUHRF1 (human) (UniProt Q96T88); assay: MST; 50 nM 6× His-tagged protein labelled with RED-tris-NTA dye, peptide titrated; 20 mM HEPES–NaOH pH 7.9, 150 mM NaCl, 0.05% Tween-20; room temperature; also with 100-fold molar excess of 16:0 PI5P (Figure 3D)
[2] = target: recombinant mUHRF1 V1 (mouse) (UniProt Q8VDF2); assay: as above
[3] = target: H3(1-15)K9me3-FAM peptide (C-terminally fluorescein-labelled); assay: fluorescence polarisation; FAM-labelled H3(1-15) peptide, recombinant protein titrated; RT; as described (ref. 28)
[4] = target: H3(1-15)unmodified-FAM peptide (C-terminally fluorescein-labelled); assay: as above
[5] = target: human UHRF1 (hUHRF1), full-length, wild type (human) (UniProt Q96T88); assay: MST; 50 nM His-tag-labelled (RED-tris-NTA) UHRF1 protein, H3 peptide titrated; 20 mM HEPES-NaOH pH 7.9, 150 mM NaCl, 0.05% Tween-20; room temperature; Monolith NT.115
[6] = target: mUHRF1 V1 P-patch/R* (P293A/P294A/P295A/L297A/R298A), full-length (mouse) (UniProt Q8VDF2); assay: as above
[7] = target: mUHRF1 V1 R-S* (R298A/N299A/T300A/G301A/K302A/S303A), full-length (mouse) (UniProt Q8VDF2); assay: as above
[8] = target: mUHRF1 V1 R298* (R298A), full-length (mouse) (UniProt Q8VDF2); assay: as above
[9] = target: murine UHRF1 splicing variant 1 (mUHRF1 V1), full-length, wild type (mouse) (UniProt Q8VDF2); assay: as above
[10] = target: murine UHRF1 splicing variant 2 (mUHRF1 V2), full-length, wild type (mouse); assay: as above
[11] = target: FAM-H3(1-15)K9me3 peptide (N-terminally fluorescein-labelled); assay: fluorescence polarisation; FAM-labelled H3(1-15) peptide, recombinant protein titrated; RT; as described (ref. 28)
[12] = target: FAM-H3(1–15)K9me3 peptide; assay: fluorescence polarisation; FAM-labelled H3(1–15) peptide, recombinant protein titrated; room temperature; as described in ref. 28
[13] = target: H3(1–15)K9me3-FAM peptide; assay: as above
[14] = target: H3(1–15)unmodified-FAM peptide; assay: as above

human UHRF1 (hUHRF1), full-length, wild type (human), sequence (Q96T88 whole entry): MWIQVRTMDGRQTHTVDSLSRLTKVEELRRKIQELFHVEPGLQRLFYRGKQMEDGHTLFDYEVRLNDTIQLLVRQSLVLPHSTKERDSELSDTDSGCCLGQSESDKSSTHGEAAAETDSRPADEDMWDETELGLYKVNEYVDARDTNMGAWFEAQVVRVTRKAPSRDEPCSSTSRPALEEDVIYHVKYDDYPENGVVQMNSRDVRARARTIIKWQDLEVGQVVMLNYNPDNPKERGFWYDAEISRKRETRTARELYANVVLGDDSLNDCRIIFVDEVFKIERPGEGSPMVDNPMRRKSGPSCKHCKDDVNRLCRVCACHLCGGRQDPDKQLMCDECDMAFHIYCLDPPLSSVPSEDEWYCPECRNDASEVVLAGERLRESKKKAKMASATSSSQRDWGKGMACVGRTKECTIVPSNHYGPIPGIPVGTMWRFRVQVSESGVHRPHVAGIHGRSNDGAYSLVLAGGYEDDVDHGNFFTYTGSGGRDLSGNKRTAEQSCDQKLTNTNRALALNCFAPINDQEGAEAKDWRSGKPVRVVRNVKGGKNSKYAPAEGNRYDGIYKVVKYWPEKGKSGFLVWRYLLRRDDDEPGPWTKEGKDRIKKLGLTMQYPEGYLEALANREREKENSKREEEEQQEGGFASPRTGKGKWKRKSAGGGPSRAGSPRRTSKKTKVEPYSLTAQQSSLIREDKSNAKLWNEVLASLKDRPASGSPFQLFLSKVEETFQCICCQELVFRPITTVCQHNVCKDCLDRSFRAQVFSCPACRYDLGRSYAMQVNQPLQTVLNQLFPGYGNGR
murine UHRF1 splicing variant 1 (mUHRF1 V1), full-length, wild type (mouse), sequence (Q8VDF2 whole entry, change not shown): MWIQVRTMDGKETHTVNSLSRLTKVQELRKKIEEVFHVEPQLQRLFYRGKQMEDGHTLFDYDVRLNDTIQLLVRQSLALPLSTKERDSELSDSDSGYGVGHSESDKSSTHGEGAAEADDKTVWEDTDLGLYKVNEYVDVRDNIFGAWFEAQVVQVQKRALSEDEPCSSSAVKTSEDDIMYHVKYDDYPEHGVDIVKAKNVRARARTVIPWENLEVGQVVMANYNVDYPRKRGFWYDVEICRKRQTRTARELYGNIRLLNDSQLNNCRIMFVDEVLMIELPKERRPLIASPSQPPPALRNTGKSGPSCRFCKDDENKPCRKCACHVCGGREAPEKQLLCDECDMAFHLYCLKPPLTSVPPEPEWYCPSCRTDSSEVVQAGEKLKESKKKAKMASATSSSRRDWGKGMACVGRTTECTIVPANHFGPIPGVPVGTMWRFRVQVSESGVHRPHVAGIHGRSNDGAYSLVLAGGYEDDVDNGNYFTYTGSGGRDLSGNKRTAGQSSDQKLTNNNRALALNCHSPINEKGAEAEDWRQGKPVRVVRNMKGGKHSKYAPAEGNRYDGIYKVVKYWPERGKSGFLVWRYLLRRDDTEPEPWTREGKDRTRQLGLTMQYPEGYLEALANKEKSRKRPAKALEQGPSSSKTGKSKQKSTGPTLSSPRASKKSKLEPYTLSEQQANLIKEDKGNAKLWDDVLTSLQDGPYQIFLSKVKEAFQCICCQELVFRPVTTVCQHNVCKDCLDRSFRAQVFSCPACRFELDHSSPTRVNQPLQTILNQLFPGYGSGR
mUHRF1 V1 P-patch/R* (P293A/P294A/P295A/L297A/R298A), full-length (mouse), sequence (Q8VDF2 whole entry P293A/P294A/P295A/L297A/R298A): as the sequence (Q8VDF2 whole entry, change not shown) above, with P293A, P294A, P295A, L297A, R298A counted along it
mUHRF1 V1 R-S* (R298A/N299A/T300A/G301A/K302A/S303A), full-length (mouse), sequence (Q8VDF2 whole entry R298A/N299A/T300A/G301A/K302A/S303A): as the sequence (Q8VDF2 whole entry, change not shown) above, with R298A, N299A, T300A, G301A, K302A, S303A counted along it
mUHRF1 V1 R298* (R298A), full-length (mouse), sequence (Q8VDF2 whole entry R298A): as the sequence (Q8VDF2 whole entry, change not shown) above, with R298A counted along it
recombinant hUHRF1 (human), sequence (Q96T88 whole entry): as the sequence (Q96T88 whole entry) above
recombinant mUHRF1 V1 (mouse), sequence (Q8VDF2 whole entry): as the sequence (Q8VDF2 whole entry, change not shown) above

Substance: H3R2me2sK9me3 peptide (titrated in MST)
- fold weaker affinity against the H3K9me3 peptide [1]: 10 fold
- fold reduction of binding against the H3K9me3 peptide [2]: 20 fold

Substance: hTTD-PHD module of human UHRF1, wild type (from UniProt Q96T88 1-793) (domain or fragment)
- Kd [3]: 2.6 µM
- Kd [4]: 2.4 µM

Substance: histone H3 N-terminal tail peptide, K9 trimethylated (MST)
- Kd [5]: 1.5 µM
- Kd [6]: 6.3 µM
- Kd [7]: 6.2 µM
- Kd [8]: 6.7 µM
- Kd [9]: 1.4 µM
- Kd [10]: 4.5 µM

Substance: histone H3 N-terminal tail peptide, R2 symmetrically dimethylated and K9 trimethylated (MST)
- Kd [5]: 16 µM
- Kd [9]: 28 µM
- Kd [10]: 14 µM

Substance: histone H3 N-terminal tail peptide, unmodified (MST)
- Kd [5]: 2.5 µM
- Kd [6]: 4.1 µM
- Kd [7]: 5.1 µM
- Kd [8]: 4.6 µM
- Kd [9]: 5.3 µM
- Kd [10]: 5.8 µM

Substance: human UHRF1 (hUHRF1), full-length, wild type (from UniProt Q96T88-1 1-793) (natural protein)
- Kd [3]: 7.7 µM
- Kd [4]: 15 µM

Substance: isolated tandem tudor domain of human UHRF1 (hTTD) (from UniProt Q96T88 1-793) (domain or fragment)
- Kd [11]: 6.3 µM
- Kd [3]: 4.9 µM

Substance: isolated tandem tudor domain of murine UHRF1 (mTTD) (from UniProt Q8VDF2 1-782) (domain or fragment)
- Kd [11]: 3.4 µM
- Kd [3]: 2.7 µM

Substance: mTTD-PHD V1 (domain or fragment)
- Kd [12]: > 300 µM
- Kd [13]: 4.9 µM
- Kd [14]: 14.3 µM

Substance: mTTD-PHD V1 TTD* (Y184A/Y187A, aromatic cage mutant) (from UniProt Q8VDF2-1 122-380) (domain or fragment)
- Kd [3]: 21.4 µM
- Kd [4]: 19.5 µM

Substance: mTTD-PHD V2 (domain or fragment)
- Kd [12]: 12.3 µM

Substance: mTTD-PHD V2 module (mUHRF1 V2 122-372) (domain or fragment)
- Kd [3]: 14.4 µM
- Kd [4]: 10.5 µM

Substance: murine UHRF1 splicing variant 1 (mUHRF1 V1), full-length, wild type (from UniProt Q8VDF2 1-782) (natural protein)
- Kd [3]: 6.4 µM
- Kd [4]: 12.7 µM

Substance: murine UHRF1 splicing variant 2 (mUHRF1 V2), full-length, wild type (natural protein)
- Kd [11]: > 50 µM
- Kd [3]: 19.8 µM
- Kd [4]: 14.8 µM
